Assay results taken from the supplement of paper PMC10065799, “High-throughput profiling of sequence recognition by tyrosine kinases and SH2 domains using bacterial peptide display” (eLife, 2023).

Experiments:
AncSZ = test: phosphorylation enrichment, bacterial display (enrichment ratio); higher = better substrate or ligand; peptides without Tyr show the background
EPHB1 = EPHB1 (UniProt P54762); test: as above
EPHB2 = EPHB2 (UniProt P29323); test: as above
FGFR1 = FGFR1 (UniProt P11362); test: as above
FGFR3 = FGFR3 (UniProt P22607); test: as above
Fer (mouse) = test: as above
Fes = Fes (UniProt P07332); test: as above
Fyn = Fyn (UniProt P06241); test: as above
Hck = Hck (UniProt P08631); test: as above
Jak2 = Jak2 (UniProt O60674); test: as above
MERTK = MERTK (UniProt Q12866); test: as above
c-Abl (mouse) = test: as above
c-Src = test: as above
Grb2 SH2 = Grb2 SH2 (UniProt P62993); test: SH2 binding enrichment of the phosphorylated peptide, bacterial display (enrichment ratio); higher = better substrate or ligand; peptides without Tyr show the background
SHP2-C SH2 = test: as above
c-Src SH2 = test: as above
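Throughout, for SH2 binding enrichment of the phosphorylated peptide, bacterial display: peptide library displayed on the E. coli surface as eCPX fusions, selected cells deep-sequenced, score is each peptide's frequency after selection divided by its frequency in the input.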
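Throughout, for phosphorylation enrichment, bacterial display: 11-residue human phosphosite peptides and single-mutation variants displayed on the E. coli surface, counted by deep sequencing, each peptide's frequency after selection divided by its frequency in the unselected input library; frequency after pTyr selection over input frequency; kinase dosed for 20-30% of maximal phosphorylation in three min.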

Sequence of Grb2 SH2 (P62993 whole entry, looked up): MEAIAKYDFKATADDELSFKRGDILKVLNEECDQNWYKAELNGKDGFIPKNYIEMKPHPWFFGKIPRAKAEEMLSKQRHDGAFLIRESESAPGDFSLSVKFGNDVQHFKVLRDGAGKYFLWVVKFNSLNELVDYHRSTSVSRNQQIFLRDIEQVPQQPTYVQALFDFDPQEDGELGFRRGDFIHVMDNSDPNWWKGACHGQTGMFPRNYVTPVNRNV
Sequence of EPHB1 (P54762 whole entry, looked up): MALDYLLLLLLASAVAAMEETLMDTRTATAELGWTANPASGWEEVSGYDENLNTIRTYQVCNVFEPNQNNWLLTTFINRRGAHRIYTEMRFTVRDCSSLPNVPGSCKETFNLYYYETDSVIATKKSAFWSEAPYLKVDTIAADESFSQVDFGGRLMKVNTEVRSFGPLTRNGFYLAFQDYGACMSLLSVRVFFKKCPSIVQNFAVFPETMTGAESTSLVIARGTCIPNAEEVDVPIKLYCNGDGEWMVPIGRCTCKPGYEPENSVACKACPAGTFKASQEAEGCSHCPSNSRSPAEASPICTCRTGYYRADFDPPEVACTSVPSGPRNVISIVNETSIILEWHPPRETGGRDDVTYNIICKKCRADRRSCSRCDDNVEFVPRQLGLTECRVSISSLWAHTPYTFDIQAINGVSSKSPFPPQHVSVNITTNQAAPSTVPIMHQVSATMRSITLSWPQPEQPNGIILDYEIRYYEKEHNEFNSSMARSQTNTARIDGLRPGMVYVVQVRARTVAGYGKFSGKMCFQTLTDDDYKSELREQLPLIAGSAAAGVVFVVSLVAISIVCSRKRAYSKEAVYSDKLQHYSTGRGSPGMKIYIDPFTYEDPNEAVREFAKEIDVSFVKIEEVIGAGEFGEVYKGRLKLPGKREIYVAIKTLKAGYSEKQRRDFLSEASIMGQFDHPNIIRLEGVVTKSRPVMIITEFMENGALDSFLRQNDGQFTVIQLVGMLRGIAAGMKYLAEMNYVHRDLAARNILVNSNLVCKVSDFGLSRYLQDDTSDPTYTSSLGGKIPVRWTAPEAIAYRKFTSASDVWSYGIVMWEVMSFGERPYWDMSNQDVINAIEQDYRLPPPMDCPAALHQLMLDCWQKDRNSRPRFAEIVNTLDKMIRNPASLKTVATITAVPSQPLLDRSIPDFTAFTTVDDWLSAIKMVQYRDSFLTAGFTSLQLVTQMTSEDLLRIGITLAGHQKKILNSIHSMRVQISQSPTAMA
Sequence of EPHB2 (P29323 whole entry, looked up): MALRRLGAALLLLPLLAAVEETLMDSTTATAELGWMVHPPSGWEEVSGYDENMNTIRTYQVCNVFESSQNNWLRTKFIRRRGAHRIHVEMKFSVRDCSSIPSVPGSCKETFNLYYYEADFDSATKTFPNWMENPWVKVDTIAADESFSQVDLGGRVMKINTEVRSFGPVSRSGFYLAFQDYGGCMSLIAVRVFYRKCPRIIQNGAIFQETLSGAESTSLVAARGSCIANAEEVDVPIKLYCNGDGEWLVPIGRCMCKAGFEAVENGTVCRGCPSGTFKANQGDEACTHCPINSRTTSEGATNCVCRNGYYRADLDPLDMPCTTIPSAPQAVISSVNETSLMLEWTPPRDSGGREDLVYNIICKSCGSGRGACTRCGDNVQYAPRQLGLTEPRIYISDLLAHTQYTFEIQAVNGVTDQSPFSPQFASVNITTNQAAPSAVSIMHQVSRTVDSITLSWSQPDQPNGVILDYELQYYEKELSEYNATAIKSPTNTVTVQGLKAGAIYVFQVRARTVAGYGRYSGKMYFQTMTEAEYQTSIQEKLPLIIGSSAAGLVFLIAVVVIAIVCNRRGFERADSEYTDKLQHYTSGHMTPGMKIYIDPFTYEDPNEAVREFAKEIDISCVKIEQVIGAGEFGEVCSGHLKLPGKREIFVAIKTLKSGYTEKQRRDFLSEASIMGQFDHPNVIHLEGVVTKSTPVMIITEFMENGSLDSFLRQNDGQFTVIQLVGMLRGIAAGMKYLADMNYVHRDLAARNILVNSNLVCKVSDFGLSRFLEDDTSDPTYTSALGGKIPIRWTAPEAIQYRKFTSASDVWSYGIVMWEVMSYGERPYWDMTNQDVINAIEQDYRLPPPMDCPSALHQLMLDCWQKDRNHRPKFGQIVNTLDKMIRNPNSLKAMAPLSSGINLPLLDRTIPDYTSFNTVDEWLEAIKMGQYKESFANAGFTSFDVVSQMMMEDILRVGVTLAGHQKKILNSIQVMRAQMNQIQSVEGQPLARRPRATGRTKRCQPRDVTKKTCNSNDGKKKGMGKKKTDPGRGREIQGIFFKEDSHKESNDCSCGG
Sequence of FGFR3 (P22607 whole entry, looked up): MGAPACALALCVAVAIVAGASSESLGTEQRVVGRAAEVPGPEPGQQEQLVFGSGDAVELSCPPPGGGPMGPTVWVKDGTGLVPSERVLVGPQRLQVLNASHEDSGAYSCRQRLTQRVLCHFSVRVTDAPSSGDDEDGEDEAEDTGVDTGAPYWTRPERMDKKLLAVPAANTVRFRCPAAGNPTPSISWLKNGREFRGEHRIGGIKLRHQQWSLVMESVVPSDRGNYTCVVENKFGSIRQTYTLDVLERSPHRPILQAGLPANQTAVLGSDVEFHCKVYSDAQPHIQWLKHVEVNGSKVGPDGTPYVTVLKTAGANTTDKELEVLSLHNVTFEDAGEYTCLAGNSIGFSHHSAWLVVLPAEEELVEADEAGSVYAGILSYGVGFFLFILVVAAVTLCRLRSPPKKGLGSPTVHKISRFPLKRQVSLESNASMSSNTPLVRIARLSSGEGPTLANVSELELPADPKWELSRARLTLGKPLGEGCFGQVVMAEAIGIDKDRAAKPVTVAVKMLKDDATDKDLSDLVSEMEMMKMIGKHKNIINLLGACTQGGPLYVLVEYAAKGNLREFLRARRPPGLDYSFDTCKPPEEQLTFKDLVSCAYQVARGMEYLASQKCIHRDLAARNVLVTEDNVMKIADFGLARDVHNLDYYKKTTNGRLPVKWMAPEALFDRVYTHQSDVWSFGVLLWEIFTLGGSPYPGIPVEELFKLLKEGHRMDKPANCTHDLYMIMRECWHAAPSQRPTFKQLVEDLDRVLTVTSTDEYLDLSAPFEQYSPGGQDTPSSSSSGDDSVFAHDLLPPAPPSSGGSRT
Sequence of Hck (P08631 whole entry, looked up): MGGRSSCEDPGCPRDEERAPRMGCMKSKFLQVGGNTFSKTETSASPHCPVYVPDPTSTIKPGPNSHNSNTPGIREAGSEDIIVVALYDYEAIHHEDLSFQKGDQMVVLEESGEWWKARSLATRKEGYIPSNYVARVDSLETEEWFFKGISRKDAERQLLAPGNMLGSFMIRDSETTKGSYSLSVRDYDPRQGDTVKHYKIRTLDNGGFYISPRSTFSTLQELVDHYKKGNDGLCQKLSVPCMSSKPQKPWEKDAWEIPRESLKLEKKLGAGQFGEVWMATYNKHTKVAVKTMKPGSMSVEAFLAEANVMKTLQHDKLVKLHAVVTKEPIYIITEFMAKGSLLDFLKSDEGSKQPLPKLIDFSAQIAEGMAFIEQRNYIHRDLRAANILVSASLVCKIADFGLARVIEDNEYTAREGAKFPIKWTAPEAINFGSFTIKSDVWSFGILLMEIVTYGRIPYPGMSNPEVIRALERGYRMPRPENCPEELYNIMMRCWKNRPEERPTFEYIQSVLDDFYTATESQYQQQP
Sequence of FGFR1 (P11362 whole entry, looked up): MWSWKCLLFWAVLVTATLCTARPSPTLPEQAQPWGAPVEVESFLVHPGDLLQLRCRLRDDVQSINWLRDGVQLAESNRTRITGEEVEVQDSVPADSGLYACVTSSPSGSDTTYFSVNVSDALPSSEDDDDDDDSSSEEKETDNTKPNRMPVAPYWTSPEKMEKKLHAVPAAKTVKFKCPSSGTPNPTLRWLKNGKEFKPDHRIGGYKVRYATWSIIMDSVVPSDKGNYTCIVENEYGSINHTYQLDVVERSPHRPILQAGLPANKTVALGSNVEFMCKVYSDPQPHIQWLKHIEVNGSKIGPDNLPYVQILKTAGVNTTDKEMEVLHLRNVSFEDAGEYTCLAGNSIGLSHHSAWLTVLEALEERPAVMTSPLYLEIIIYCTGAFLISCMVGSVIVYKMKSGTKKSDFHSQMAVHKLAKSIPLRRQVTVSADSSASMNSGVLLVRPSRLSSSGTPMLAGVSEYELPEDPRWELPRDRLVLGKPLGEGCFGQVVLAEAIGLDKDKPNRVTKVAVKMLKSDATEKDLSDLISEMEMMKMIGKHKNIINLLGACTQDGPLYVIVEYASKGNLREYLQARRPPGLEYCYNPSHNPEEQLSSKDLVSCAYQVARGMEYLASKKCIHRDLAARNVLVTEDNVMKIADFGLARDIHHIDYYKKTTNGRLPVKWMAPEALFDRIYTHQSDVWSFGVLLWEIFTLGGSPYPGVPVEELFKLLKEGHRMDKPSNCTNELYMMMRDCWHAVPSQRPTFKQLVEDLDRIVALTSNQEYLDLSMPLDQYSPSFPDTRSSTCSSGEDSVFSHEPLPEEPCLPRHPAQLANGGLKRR
Sequence of Fyn (P06241 whole entry, looked up): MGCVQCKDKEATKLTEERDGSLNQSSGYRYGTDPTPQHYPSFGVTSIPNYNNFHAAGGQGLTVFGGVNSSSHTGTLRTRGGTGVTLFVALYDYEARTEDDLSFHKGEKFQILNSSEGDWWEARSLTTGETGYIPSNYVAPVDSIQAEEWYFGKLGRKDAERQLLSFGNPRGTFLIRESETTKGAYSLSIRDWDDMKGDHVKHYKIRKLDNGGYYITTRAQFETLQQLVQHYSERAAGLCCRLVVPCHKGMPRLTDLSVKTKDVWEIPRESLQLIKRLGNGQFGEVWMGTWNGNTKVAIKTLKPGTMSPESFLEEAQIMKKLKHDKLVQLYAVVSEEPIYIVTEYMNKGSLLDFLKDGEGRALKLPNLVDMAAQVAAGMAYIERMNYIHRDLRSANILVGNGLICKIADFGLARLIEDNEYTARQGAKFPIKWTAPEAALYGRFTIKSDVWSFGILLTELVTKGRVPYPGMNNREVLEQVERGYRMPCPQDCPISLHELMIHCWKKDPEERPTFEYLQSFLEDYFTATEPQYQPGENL

Row | Sequence | phosphorylation enrichment (AncSZ) | phosphorylation enrichment (EPHB1) | phosphorylation enrichment (EPHB2) | phosphorylation enrichment (FGFR1) | phosphorylation enrichment (FGFR3) | phosphorylation enrichment (Fer (mouse)) | phosphorylation enrichment (Fes) | phosphorylation enrichment (Fyn) | phosphorylation enrichment (Hck) | phosphorylation enrichment (Jak2) | phosphorylation enrichment (MERTK) | phosphorylation enrichment (c-Abl (mouse)) | phosphorylation enrichment (c-Src) | SH2 binding enrichment (Grb2 SH2) | SH2 binding enrichment (SHP2-C SH2) | SH2 binding enrichment (c-Src SH2)
1 | NLNGKYYKPRA [ANGPTL3_Y417_N418Y] | 0.474 | 0.404 | 0.324 | 0.408 | 0.445 | 0.354 | 0.57 | 0.241 | 0.312 | 0.617 | 0.304 | 0.61 | 0.406 | 1.3 | 0.974 | 0.861
2 | NNDLCYWVPEL [IARS1_Y434] | 2.86 | 4.43 | 5.52 | 5.92 | 5.02 | 0.643 | 1.22 | 1.92 | 2.13 | 3.15 | 4.55 | 8.63 | 2.17 | 0.813 | 0.791 | 0.514
3 | NPEACYQRLKK [TK2_Y190_T188A] | 0.63 | 0.417 | 0.507 | 0.381 | 0.471 | 0.419 | 0.597 | 0.474 | 0.802 | 0.892 | 0.484 | 0.558 | 0.685 | 1.11 | 0.949 | 1.1
4 | NREGVYTVFAP [TGFBI_Y537] | 1.54 | 2.35 | 2.04 | 0.885 | 1.07 | 8.74 | 1.11 | 13.3 | 10 | 0.862 | 11.4 | 1.57 | 8.95 | 0.688 | 0.516 | 0.604
5 | NTGFFYDLFGG [PTPN11_Y63_D61Y_YF] | 1.24 | 0.693 | 0.659 | 0.509 | 0.786 | 0.77 | 1.31 | 2.42 | 1.52 | 1.19 | 3.4 | 0.869 | 2.85 | 1.51 | 1.66 | 0.98
6 | NTGYYYDLYGG [PTPN11_Y63_D61Y] | 1.73 | 11.3 | 10.6 | 13.9 | 11.3 | 3.4 | 1.25 | 5.76 | 6.15 | 4.73 | 8.78 | 0.971 | 4.67 | 1.33 | 1.56 | 5.74
7 | PAGSGYPAFLG [ATP6V1A_Y374_D371G_YF] | 1 | 0.634 | 1.17 | 0.737 | 0.794 | 0.512 | 1.13 | 0.478 | 0.626 | 0.687 | 0.469 | 0.869 | 0.735 | 0.828 | 0.778 | 0.538
8 | PANTVYSTVEI [SLAMF7_Y304] | 1.59 | 2.2 | 1.83 | 1.43 | 1.29 | 23.3 | 2.16 | 10.2 | 9.13 | 1.47 | 7.46 | 6.76 | 7.87 | 0.925 | 5.85 | 1.26
9 | PASLSYLSFEG [EXOSC3_Y143] | 0.942 | 0.745 | 0.789 | 0.591 | 0.742 | 0.501 | 0.954 | 0.819 | 0.602 | 1.18 | 0.661 | 0.619 | 1.1 | 0.762 | 1.11 | 0.696
10 | PASWTYVRWFD [PTDSS1_Y274] | 1.71 | 1.12 | 1.1 | 0.907 | 1.35 | 0.729 | 1.79 | 0.669 | 1.14 | 1.79 | 0.51 | 1.04 | 1.01 | 1.47 | 1.65 | 0.766
11 | PDGREYIYVDP [PDGFRA_Y572_H570R] | 3.36 | 3.98 | 2.74 | 8.67 | 5.18 | 0.983 | 1.35 | 1.07 | 1.28 | 1.88 | 1.42 | 1.93 | 1.77 | 0.605 | 0.781 | 0.385
12 | PEAALYGRFTF [FYN_Y440_I445F] | 1.21 | 1.14 | 1.2 | 1.29 | 0.971 | 2.75 | 1.6 | 10.1 | 8.89 | 1.41 | 5.92 | 4.39 | 7.87 | 0.652 | 0.563 | 0.328
13 | PEIIAYQPFGK [PRKCG_Y529_YF] | 1.03 | 0.635 | 0.645 | 0.777 | 0.796 | 0.672 | 1.1 | 0.688 | 0.798 | 0.976 | 0.653 | 0.672 | 1.07 | 1.06 | 1.11 | 0.664
14 | PEQAAYQKVVA [HBB_Y131_V127E] | 0.591 | 0.613 | 0.811 | 0.519 | 0.524 | 0.681 | 1.07 | 0.462 | 0.561 | 1.08 | 0.483 | 1 | 0.472 | 0.782 | 0.497 | 0.669
15 | PFGQWYESHFA [RPS8_Y113_R110G_YF] | 1.3 | 5.8 | 4.94 | 1.01 | 1.01 | 17.7 | 1.43 | 1.32 | 1.53 | 0.907 | 4.87 | 0.764 | 4.21 | 1.15 | 1.12 | 0.919
16 | PFTRNYFVWAV [CYBA_Y87_R90W_YF] | 4.23 | 3.63 | 3.07 | 13.5 | 10.9 | 1.97 | 4.28 | 1.56 | 1.92 | 7.13 | 9.74 | 4.62 | 1.27 | 0.939 | 0.771 | 0.534
